This note sets out measurements from patent US20130123349A1 (US Dept. of Health and Human Services, published 2013).

The target in experiment [1] is T1, soluble collagen type I (pepsin-digested, non-fibrillar, triple helical; BD Biosciences) (human, UniProt P02452 179-1192; P08123 91-1104).
T1 construct: also called collagen I; monomeric type I collagen
Kind of experiment: SPR, […]; concentration not given. On the technique in general: SPR reads the build-up and loss of mass on a sensor chip optically.

Experiment [2] deals with T1, soluble collagen type I …. Put plainly: SPR at 15-40 °C, van't Hoff analysis, Aegyptin over immobilized collagen type I; value (±SE).
The target in experiment [3] is T2, soluble collagen type III (pepsin-digested, non-fibrillar; BD Biosciences) (human, UniProt P02461 168-1196).
T2 construct: also called collagen III; soluble collagen III
T2 sequence: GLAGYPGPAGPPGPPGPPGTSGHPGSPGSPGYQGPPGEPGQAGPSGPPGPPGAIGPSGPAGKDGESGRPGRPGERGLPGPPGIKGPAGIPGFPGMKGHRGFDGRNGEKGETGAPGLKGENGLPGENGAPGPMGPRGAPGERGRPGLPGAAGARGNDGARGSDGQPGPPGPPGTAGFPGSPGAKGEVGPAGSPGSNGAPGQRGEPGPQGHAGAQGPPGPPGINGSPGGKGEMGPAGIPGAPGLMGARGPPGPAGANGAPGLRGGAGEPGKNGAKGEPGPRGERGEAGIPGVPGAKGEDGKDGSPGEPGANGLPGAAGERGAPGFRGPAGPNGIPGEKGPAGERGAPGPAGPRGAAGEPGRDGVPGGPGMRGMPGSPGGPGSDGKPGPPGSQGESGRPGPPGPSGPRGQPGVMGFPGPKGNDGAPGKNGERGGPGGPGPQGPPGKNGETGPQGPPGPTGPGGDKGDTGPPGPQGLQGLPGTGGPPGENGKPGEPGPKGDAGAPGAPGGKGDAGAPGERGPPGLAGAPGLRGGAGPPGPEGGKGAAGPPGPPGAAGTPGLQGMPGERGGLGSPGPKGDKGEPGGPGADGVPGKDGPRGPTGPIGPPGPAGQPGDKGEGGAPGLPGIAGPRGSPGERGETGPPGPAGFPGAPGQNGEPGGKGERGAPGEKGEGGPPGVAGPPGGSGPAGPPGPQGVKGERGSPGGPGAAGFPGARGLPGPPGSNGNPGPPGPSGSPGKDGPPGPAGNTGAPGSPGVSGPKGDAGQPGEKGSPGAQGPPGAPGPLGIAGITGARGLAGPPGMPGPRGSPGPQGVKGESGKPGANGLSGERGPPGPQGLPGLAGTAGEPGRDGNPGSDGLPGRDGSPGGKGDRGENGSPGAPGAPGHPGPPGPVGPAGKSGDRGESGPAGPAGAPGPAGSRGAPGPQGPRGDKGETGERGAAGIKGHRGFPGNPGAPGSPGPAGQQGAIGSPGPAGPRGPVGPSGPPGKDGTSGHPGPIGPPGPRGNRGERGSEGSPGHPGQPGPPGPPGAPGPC
Kind of experiment: ELISA, inhibition of vWf (3 nM) binding to coated soluble collagen type III; competitor vWf. In general terms: ELISA stands for enzyme-linked immunosorbent assay.

Experiment [4] concerns the target T1, soluble collagen type I …. Kind of experiment: SPR, Aegyptin over immobilized soluble collagen type I, 180 s at 30 µl/min, two-state model; Ka1.
Experiment [5] addresses T3, heat-denatured soluble collagen type I (90 min at 98 °C) (human, UniProt P02452 179-1192; P08123 91-1104).
T3 construct: also called Collagen denatured; heat-denatured collagen
Put plainly: SPR, Aegyptin over immobilized heat-denatured collagen type I, two-state model; Ka1.

In experiment [6] the target is T1, soluble collagen type I …. Put plainly: SPR, global two-state binding model, immobilized soluble collagen type I.
The target in experiment [7] is T1, soluble collagen type I …. Kind of experiment: SPR, C-terminus-2 (5 to 250 nM) over immobilized soluble collagen type I, two-state model.

T1 sequence (P02452 179-1192 limits assumed, chain 1 of 2): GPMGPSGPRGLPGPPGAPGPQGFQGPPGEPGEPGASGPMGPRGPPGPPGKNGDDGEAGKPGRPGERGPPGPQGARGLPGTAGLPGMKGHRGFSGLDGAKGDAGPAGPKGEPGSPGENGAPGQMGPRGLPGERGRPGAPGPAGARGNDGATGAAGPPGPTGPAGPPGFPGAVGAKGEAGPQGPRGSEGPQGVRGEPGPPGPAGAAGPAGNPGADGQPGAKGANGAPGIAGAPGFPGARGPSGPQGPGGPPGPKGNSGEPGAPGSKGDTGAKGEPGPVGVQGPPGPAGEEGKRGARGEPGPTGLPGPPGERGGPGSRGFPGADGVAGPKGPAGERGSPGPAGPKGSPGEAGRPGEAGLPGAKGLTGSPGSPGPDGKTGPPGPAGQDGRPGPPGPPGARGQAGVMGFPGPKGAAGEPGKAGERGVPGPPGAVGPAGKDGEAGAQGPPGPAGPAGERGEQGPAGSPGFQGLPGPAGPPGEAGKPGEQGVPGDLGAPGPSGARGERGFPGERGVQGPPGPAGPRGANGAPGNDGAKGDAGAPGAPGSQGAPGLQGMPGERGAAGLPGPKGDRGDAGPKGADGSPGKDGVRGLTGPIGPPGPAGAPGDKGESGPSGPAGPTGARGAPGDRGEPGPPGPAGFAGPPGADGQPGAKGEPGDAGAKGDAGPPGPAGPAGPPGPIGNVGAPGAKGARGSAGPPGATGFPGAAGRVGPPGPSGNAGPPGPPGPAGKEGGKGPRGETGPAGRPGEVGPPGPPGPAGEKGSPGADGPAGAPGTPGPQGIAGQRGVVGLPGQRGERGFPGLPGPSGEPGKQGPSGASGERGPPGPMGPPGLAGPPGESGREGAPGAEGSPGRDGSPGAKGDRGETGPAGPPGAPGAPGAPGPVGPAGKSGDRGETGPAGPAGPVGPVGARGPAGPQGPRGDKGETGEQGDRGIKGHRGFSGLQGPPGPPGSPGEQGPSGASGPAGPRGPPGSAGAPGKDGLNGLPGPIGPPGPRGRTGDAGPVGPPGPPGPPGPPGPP
T1 sequence (P08123 91-1104 limits assumed, chain 2 of 2): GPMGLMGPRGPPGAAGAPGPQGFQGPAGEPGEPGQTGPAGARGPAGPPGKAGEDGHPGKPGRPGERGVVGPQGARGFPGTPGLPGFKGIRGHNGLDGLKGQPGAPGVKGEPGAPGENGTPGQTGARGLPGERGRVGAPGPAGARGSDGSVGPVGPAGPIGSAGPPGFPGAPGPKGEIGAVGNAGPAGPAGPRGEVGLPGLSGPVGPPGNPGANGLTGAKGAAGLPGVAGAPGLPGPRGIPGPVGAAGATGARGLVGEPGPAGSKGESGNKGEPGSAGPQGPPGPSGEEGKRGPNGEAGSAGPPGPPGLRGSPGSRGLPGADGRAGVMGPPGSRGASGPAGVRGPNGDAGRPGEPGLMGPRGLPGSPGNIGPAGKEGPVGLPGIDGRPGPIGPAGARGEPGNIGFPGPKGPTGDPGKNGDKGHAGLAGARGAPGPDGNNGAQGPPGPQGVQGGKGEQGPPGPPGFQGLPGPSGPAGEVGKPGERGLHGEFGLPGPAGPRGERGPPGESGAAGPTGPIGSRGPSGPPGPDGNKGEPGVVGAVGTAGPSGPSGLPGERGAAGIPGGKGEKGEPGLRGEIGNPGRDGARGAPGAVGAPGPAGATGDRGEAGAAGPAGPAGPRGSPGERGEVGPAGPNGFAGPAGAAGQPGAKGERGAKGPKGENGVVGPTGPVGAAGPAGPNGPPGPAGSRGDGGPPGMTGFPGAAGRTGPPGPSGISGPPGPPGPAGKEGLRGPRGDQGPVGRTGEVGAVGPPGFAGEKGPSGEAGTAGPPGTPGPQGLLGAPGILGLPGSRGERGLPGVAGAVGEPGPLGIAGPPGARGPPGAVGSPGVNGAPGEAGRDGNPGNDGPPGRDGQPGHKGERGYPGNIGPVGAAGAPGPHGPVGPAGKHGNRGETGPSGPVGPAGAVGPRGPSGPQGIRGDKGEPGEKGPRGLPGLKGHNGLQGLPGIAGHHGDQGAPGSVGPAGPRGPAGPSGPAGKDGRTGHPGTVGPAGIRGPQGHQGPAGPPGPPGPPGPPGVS
T3 sequence (P02452 179-1192, chain 1 of 2): as the sequence (P02452 179-1192 limits assumed, chain 1 of 2) above
T3 sequence (P08123 91-1104, chain 2 of 2): as the sequence (P08123 91-1104 limits assumed, chain 2 of 2) above

B1: C-terminus 1 of Aegyptin (113 aa) (other)
chain: RQVVALLDKDTKVDHIQSEYLRSALNNDLQSEVRVPVVEAIGRIGDYSKIQGCFKSMGKDVKKVISEEEKKFKSCMSKKKSEYQCSEDSFAAAKSKLSPITSKIKSCVSSKGR
Turning to B1, the binding result in experiment [1] is reported as “no binding”.

B2: recombinant Aegyptin (other)
chain: RPMPEDEEPVAEGGDDDASGESEGEEETTDDAGGDGGEEENEGEEHAGDKDAGGEDTGKEENTGHDDAGEEDAGEEDAGEEDAGEEDAGEEDAEKEEGEKEDAGDDAGSDDGEEDSTGGDEGEDNAEDSKGSEKNDPADTYRQVVALLDKDTKVDHIQSEYLRSALNNDLQSEVRVPVVEAIGRIGDYSKIQGCFKSMGKDVKKVISEEEKKFKSCMSKKKSEYQCSEDSFAAAKSKLSPITSKIKSCVSSKGRHHHHHH
As a reminder, the IC50 is the midpoint of a concentration-inhibition curve. Lower therefore signals inhibition by little substance. What is called kon is the rate constant with which the complex forms. In the case of B2, the “ΔS°” value in experiment [2] was 95 J/(K * mol). Besides, in experiment [3], the IC50 is 50 nM. The kon worked out at 3.63e+06 M⁻¹ s⁻¹ in experiment [4] and 674000 M⁻¹ s⁻¹ in experiment [5].

B3: C-terminus-2 of Aegyptin (137 aa) (other)
chain: GGDEGEDNAEDSKGSEKNDPADTYRQVVALLDKDTKVDHIQSEYLRSALNNDLQSEVRVPVVEAIGRIGDYSKIQGCFKSMGKDVKKVISEEEKKFKSLMSKKKSEYQCSEDSFAAAKSKLSPITSKIKSCVSSKGR
notes: also called C-terminal-2; C-terminus 2 domain
For orientation: Kd means the free concentration of one partner at which half of the binding sites on the other are occupied at equilibrium, for simple one-to-one binding. Regarding B3, the Kd in experiment [6] is 60.9 nM; in experiment [7] it was roughly 60 nM.
